Holding throughout (experiment): purified protein
Substrate in data set [1]: NC(=O)C1=CN([C@@H]2O[C@H](COP(=O)(O)OP(=O)(O)OC[C@H]3O[C@@H](n4cnc5c(N)ncnc54)[C@H](O)[C@@H]3O)[C@@H](O)[C@H]2O)C=CC1
It counts as biochemical, Rhodococcus erythropolis. The following applies: reduction; 50 mM diacetyl; 50 mM PIPES pH 6.5, 55 °C; pH 6.5; 55.0 °C; varied: cofactor.

Substrate in data set [2]: NC(=O)c1ccc[n+]([C@@H]2O[C@H](COP(=O)(O)OP(=O)(O)OC[C@H]3O[C@@H](n4cnc5c(N)ncnc54)[C@H](O)[C@@H]3O)[C@@H](O)[C@H]2O)c1
It counts as biochemical, Rhodococcus erythropolis. The following applies: oxidation; 50 mM (2R,3R)-2,3-butanediol; 50 mM CAPS pH 10.0, 45 °C; pH 10.0; 45.0 °C; varied: cofactor.

Substrate in data set [3]: CC(=O)C(C)=O
Format: biochemical, Rhodococcus erythropolis. The following applies: reduction; 0.4 mM NADH; 50 mM PIPES pH 6.5, 55 °C (swapped); pH 6.5; 55.0 °C.

Substrate in data set [4]: C[C@@H](O)[C@@H](C)O
The following applies: oxidation, 0.64 mM NAD+, 50 mM CAPS pH 10.0, 45 °C (b26 prints the pH and temperature of the two directions swapped).

Broadly, the Km is the concentration of substrate that gives half-maximal velocity. For orientation: Vmax means the top rate of the reaction or transport when substrate is in excess. Usually kcat stands for the maximal rate divided by the concentration of active sites. The kcat/Km is the turnover number divided by the Michaelis constant.

B1: ReBDH (Rhodococcus erythropolis PR4) (protein)
chain: MKAARFHGQKDIRIEEIPEPELRPGTVKLKVAWCGICGTDLHEYLEGPIFISAPGHPHPLSHENAPVTMGHEFSGTVEEVGEGVTDVEVGENVVVEPYFVCNECAPCKAGNYHLCTKMGFIGLAGGGGGLSEKVVVDRRWIHKIGNIPLDEAALIEPLSVAHHAVVRSGAESGNVAIVGGAGPIGLLVAAVLKGLGVTTIVTELSEARKAKALSSGVADYVIDPTTEDVKARVLELSGGIGADIGFECAGVNAVLDTMLDTVRPAGVVVNVSIWGKPATIDMQKLVLKEIDLRGTIAYVRDHEAVIKMVQDGVVDLAPFITGRIQLEELISEGFTTLIEHNDTAVKILVRS
notes: full length, 351 residues, deduced 37180 Da; N-terminal His-tag (pEASY-E1) kept, E. coli BL21(DE3), Ni-NTA; native 45 kDa monomer
Turning to B1, the Km in “purified protein [1]” stood at 80 ± 10 µM; in “purified protein [2]” it was 1040 ± 110 µM; in the data set “purified protein [3]”, 100 ± 10 µM; in the data set “purified protein [4]”, 580 ± 50 µM. In addition, the Vmax turned out to be 8.92 µmol/min/mg in “purified protein [1]”, 16 µmol/min/mg in “purified protein [2]”, 9.49 µmol/min/mg in “purified protein [3]” and 6.65 µmol/min/mg in “purified protein [4]”. In addition, the catalytic constant (kcat) in the data set “purified protein [1]” is 5.73 ± 0.08 s⁻¹; in the data set “purified protein [2]”, 10.3 ± 0.69 s⁻¹; in “purified protein [3]” it was 6.11 ± 0.14 s⁻¹; in “purified protein [4]”, 4.28 s⁻¹. For the same protein, the kcat/Km in the data set “purified protein [1]” stood at 71600 ± 10100 M⁻¹ s⁻¹; in the data set “purified protein [2]”, 9880 ± 1780 M⁻¹ s⁻¹; in “purified protein [3]” it was 61100 ± 7650 M⁻¹ s⁻¹; in the data set “purified protein [4]”, 7380 M⁻¹ s⁻¹.

The record behind these values is paper PMC6272300, “Characterization of a (2R,3R)-2,3-Butanediol Dehydrogenase from Rhodococcus erythropolis WZ010” (Molecules, 2015).
